Test results published in patent US20250144035A1, “Method of Increasing Epithelial Permeability Using Nanoparticles” (Carnegie Mellon University, priority 2017, published 2025).

Columns and labels:
[1] = system: mice; assay: Intestinal insulin delivery, blood glucose; format: in vivo
Procedure: Following ten hours of fasting, mice were orally gavaged with PBS (for control) or nanoparticle suspensions (100 mg/kg unless otherwise specified). Two hours later, their initial blood sugar was measured, and the animals were placed under anesthesia. Their intestines were surgically exposed, and insulin was injected at the predetermined dose (1 unit per kg body weight unless otherwise specified) into the duodenum. The mice were closed and secured with tissue adhesive, then kept under anesthesia as their blood sugar levels were monitored each hour for five hours. […] To determine specific insulin concentrations, blood samples were collected and separated via centrifugation. The serum was subjected to ELISA analysis for human insulin (LifeTechnologies®, Carlsbad, CA) per the instructions of the kit manufacturer.

[2] = Protocol: Following ten hours of fasting, mice were orally gavaged with PBS (for control) or nanoparticle suspensions (100 mg/kg unless otherwise specified). Two hours later, their initial blood sugar was measured, and the animals were placed under anesthesia. Their intestines were surgically exposed, and insulin was injected at the predetermined dose (1 unit per kg body weight unless otherwise specified) into the duodenum. The mice were closed and secured with tissue adhesive, then kept under anesthesia as their blood sugar levels were monitored each hour for five hours. For comparison to the current standard of insulin delivery, subcutaneous injections were given to additional mice, into the scruff on their necks. To determine specific insulin concentrations, blood samples were collected and separated via centrifugation. The serum was subjected to ELISA analysis for human insulin (LifeTechnologies®, Carlsbad, CA) per the instructions of the kit manufacturer.

insulin
blood glucose response ([1]; 1 U/kg subcutaneous): pronounced, but brief response | blood glucose, response to insulin dose ([1]; increasing intestinal insulin dose, constant particle administration of 100 mg/kg): increased magnitude and duration of hypoglycemia | blood insulin concentration ([2]; intestinal insulin along with nanoparticles): slight elevations in blood insulin that persisted for at least four hours | return of blood insulin to normal levels ([2]; subcutaneous injection): shortly after two hours | time of spike in blood insulin concentration ([2]; subcutaneous injection): ≤ 30 min
